Assay results reported in the supplement of paper PMC5998384.

Tests used:
HeLa Kyoto [1] = test: solubility change mitosis vs G1/S (difference of NP-40 vs SDS log2 ratios) (log2 ratio difference); higher = more soluble in mitosis
HeLa Kyoto [2] = test: thermal stability score vs G1/S (z-score of summed log2 fold changes over temperatures); higher = more thermally stable than in G1/S
HeLa Kyoto [3] = test: solubility in G1/S (NP-40 vs SDS abundance) (log2 ratio); higher = more soluble; details: cell cycle stage: G1/S
HeLa Kyoto [4] = test: melting temperature (median over replicates), in situ; higher = more thermally stable
[5] = cell cycle stage: early G1 (4.5 h after nocodazole release)
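Throughout, for melting temperature (median over replicates), in situ: HeLa Kyoto cells synchronized by double thymidine or nocodazole block, proteins quantified by TMT10plex mass spectrometry, three independent biological replicates.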
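Throughout, for solubility change mitosis vs G1/S (difference of NP-40 vs SDS log2 ratios): synchronized HeLa Kyoto cells (double thymidine block for G1/S, nocodazole release for mitosis), protein amounts in NP-40 versus SDS lysates quantified by mass spectrometry, three biological replicates.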
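Throughout, for solubility in G1/S (NP-40 vs SDS abundance): HeLa Kyoto cells arrested at G1/S by double thymidine block, proteins quantified by TMT10plex mass spectrometry in mild NP-40 versus SDS extracts, three biological replicates.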
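Throughout, for thermal stability score vs G1/S (z-score of summed log2 fold changes over temperatures): synchronized HeLa Kyoto cells, proteins quantified by TMT10plex mass spectrometry, three biological replicates, mitosis taken 0.5 h after nocodazole release, G1/S directly after double thymidine block.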

Sequence of SDHA (chain, as listed by the source): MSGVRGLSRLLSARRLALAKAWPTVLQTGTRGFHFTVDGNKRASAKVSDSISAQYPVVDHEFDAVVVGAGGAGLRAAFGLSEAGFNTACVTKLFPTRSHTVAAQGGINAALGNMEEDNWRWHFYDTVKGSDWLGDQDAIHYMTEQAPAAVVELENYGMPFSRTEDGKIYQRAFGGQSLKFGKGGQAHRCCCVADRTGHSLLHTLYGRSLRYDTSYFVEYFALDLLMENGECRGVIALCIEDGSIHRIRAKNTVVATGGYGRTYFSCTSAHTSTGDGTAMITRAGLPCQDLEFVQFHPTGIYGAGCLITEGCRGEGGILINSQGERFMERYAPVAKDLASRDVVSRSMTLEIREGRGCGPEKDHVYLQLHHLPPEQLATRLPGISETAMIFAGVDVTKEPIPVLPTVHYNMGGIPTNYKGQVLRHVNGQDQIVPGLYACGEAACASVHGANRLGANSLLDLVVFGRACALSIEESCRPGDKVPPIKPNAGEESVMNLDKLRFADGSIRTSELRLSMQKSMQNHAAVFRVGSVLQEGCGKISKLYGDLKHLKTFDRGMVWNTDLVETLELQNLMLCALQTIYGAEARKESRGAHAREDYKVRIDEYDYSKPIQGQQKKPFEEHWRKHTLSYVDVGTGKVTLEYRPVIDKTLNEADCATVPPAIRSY

| Substance | solubility change mitosis (log2) (HeLa Kyoto [1]) | thermal stability score (HeLa Kyoto [2]; [5]) | thermal stability score (HeLa Kyoto [2]; cell cycle stage: mitosis) | solubility in G1/S (log2) (HeLa Kyoto [3]) | melting temperature (HeLa Kyoto [4]; cell cycle stage: G1/S) | melting temperature (HeLa Kyoto [4]; cell cycle stage: mitosis) |
| --- | --- | --- | --- | --- | --- | --- |
| MDSALSDPHNGSAEAGGPTNSTTRPPSTPEGIALAYGSLLLMALLPIFFGALRSVRCARGKNASDMPETITSRDAARFPIIASCTLLGLYLFFKIFSQEYINLLLSMYFFVLGILALSHTISPFMNKFFPASFPNRQYQLLFTQGSGENKEEIINYEFDTKDLVCLGLSSIVGVWYLLRKHWIANNLFGLAFSLNGVELLHLNNVSTGCILLGGLFIYDVFWVFGTNVMVTVAKSFEAPIKLVFPQDLLEKGLEANNFAMLGLGDVVIPGIFIALLLRFDISLKKNTHTYFYTSFAAYIFGLGLTIFIMHIFKHAQPALLYLVPACIGFPVLVALAKGEVTEMFSYEESNPKDPAAVTESKEGTEASASKGLEKKEK [HM13] | -0.167 | -1.07 | -1.15 | -0.106 | 60.5 °C | 59.8 °C |
| MATEIGSPPRFFHMPRFQHQAPRQLFYKRPDFAQQQAMQQLTFDGKRMRKAVNRKTIDYNPSVIKYLENRIWQRDQRDMRAIQPDAGYYNDLVPPIGMLNNPMNAVTTKFVRTSTNKVKCPVFVVRWTPEGRRLVTGASSGEFTLWNGLTFNFETILQAHDSPVRAMTWSHNDMWMLTADHGGYVKYWQSNMNNVKMFQAHKEAIREASFSPTDNKFATCSDDGTVRIWDFLRCHEERILRGHGADVKCVDWHPTKGLVVSGSKDSQQPIKFWDPKTGQSLATLHAHKNTVMEVKLNLNGNWLLTASRDHLCKLFDIRNLKEELQVFRGHKKEATAVAWHPVHEGLFASGGSDGSLLFWHVGVEKEVGGMEMAHEGMIWSLAWHPLGHILCSGSNDHTSKFWTRNRPGDKMRDRYNLNLLPGMSEDGVEYDDLEPNSLAVIPGMGIPEQLKLAMEQEQMGKDESNEIEMTIPGLDWGMEEVMQKDQKKVPQKKVPYAKPIPAQFQQAWMQNKVPIPAPNEVLNDRKEDIKLEEKKKTQAEIEQEMATLQYTNPQLLEQLKIERLAQKQVEQIQPPPSSGTPLLGPQPFPGQGPMSQIPQGFQQPHPSQQMPMNMAQMGPPGPQGQFRPPGPQGQMGPQGPPLHQGGGGPQGFMGPQGPQGPPQGLPRPQDMHGPQGMQRHPGPHGPLGPQGPPGPQGSSGPQGHMGPQGPPGPQGHIGPQGPPGPQGHLGPQGPPGTQGMQGPPGPRGMQGPPHPHGIQGGPGSQGIQGPVSQGPLMGLNPRGMQGPPGPRENQGPAPQGMIMGHPPQEMRGPHPPGGLLGHGPQEMRGPQEIRGMQGPPPQGSMLGPPQELRGPPGSQSQQGPPQGSLGPPPQGGMQGPPGPQGQQNPARGPHPSQGPIPFQQQKTPLLGDGPRAPFNQEGQSTGPPPLIPGLGQQGAQGRIPPLNPGQGPGPNKGDSRGPPNHHMGPMSERRHEQSGGPEHGPERGPFRGGQDCRGPPDRRGPHPDFPDDFSRPDDFHPDKRFGHRLREFEGRGGPLPQEEKWRRGGPGPPFPPDHREFSEGDGRGAARGPPGAWEGRRPGDERFPRDPEDPRFRGRREESFRRGAPPRHEGRAPPRGRDGFPGPEDFGPEENFDASEEAARGRDLRGRGRGTPRGGRKGLLPTPDEFPRFEGGRKPDSWDGNREPGPGHEHFRDTPRPDHPPHDGHSPASRERSSSLQGMDMASLPPRKRPWHDGPGTSEHREMEAPGGPSEDRGGKGRGGPGPAQRVPKSGRSSSLDGEHHDGYHRDEPFGGPPGSGTPSRGGRSGSNWGRGSNMNSGPPRRGASRGGGRGR [WDR33] | 0.257 | 0.933 | 1.06 | -0.421 | 49.3 °C | 49.8 °C |
| SDHA | -0.0448 | 1.89 | 2.23 | -0.11 | 54.7 °C | 56.4 °C |
| MAQVEKRGGLLRKSSASKKPLKEKVVLMYDEIFMTEDPSKCSPRFWEELFLMKVNLEYLEGKLESLDGEELMKIKDNINCLFQHCIQALGEEHPIRVVNALQTLCALIRGVHQKNKSTSGFDIINMLMGFDKAELCMKNLMESLDSLLCAEGSESLKSLCLKLLLCLVTVTDNISQNTILEYVMINSIFEAILQILSHPPSRREHGYDAVVLLALLVNYRKYESVNPYIVKLSIVDDEATLNGMGLVIAQALSEYNRQYKDKEEEHQSGFFSALTNMVGSMFIADAHEKISVQTNEAILLALYEAVHLNRNFITVLAQSHPEMGLVTTPVSPAPTTPVTPLGTTPPSSDVISSVELPLDADVQTSNLLITFLKYSSIVMQDTKDEHRLHSGKLCLIILTCIAEDQYANAFLHDDNMNFRVNLHRMPMRHRKKAADKNLPCRPLVCAVLDLMVEFIVTHMMKEFPMDLYIRCIQVVHKLLCYQKKCRVRLHYTWRELWSALINLLKFLMSNETVLLAKHNIFTLALMIVNLFNMFITYGDTFLPTPSSYDELYYEIIRMHQSFDNLYSMVLRLSTNAGQWKEAASKVTHALVNIRAIINHFNPKIESYAAVNHISQLSEEQVLEVVRANYDTLTLKLQDGLDQYERYSEQHKEAAFFKELVRSISTNVRRNLAFHTLSQEVLLKEFSTIS [C10ORF76] | -0.122 | -0.1 | -1.32 | -0.113 | 54.1 °C | 55.3 °C |
| MDGKRRPGPGPGVPPKRARGGLWDDDDAPRPSQFEEDLALMEEMEAEHRLQEQEEEELQSVLEGVADGQVPPSAIDPRWLRPTPPALDPQTEPLIFQQLEIDHYVGPAQPVPGGPPPSRGSVPVLRAFGVTDEGFSVCCHIHGFAPYFYTPAPPGFGPEHMGDLQRELNLAISRDSRGGRELTGPAVLAVELCSRESMFGYHGHGPSPFLRITVALPRLVAPARRLLEQGIRVAGLGTPSFAPYEANVDFEIRFMVDTDIVGCNWLELPAGKYALRLKEKATQCQLEADVLWSDVVSHPPEGPWQRIAPLRVLSFDIECAGRKGIFPEPERDPVIQICSLGLRWGEPEPFLRLALTLRPCAPILGAKVQSYEKEEDLLQAWSTFIRIMDPDVITGYNIQNFDLPYLISRAQTLKVQTFPFLGRVAGLCSNIRDSSFQSKQTGRRDTKVVSMVGRVQMDMLQVLLREYKLRSYTLNAVSFHFLGEQKEDVQHSIITDLQNGNDQTRRRLAVYCLKDAYLPLRLLERLMVLVNAVEMARVTGVPLSYLLSRGQQVKVVSQLLRQAMHEGLLMPVVKSEGGEDYTGATVIEPLKGYYDVPIATLDFSSLYPSIMMAHNLCYTTLLRPGTAQKLGLTEDQFIRTPTGDEFVKTSVRKGLLPQILENLLSARKRAKAELAKETDPLRRQVLDGRQLALKVSANSVYGFTGAQVGKLPCLEISQSVTGFGRQMIEKTKQLVESKYTVENGYSTSAKVVYGDTDSVMCRFGVSSVAEAMALGREAADWVSGHFPSPIRLEFEKVYFPYLLISKKRYAGLLFSSRPDAHDRMDCKGLEAVRRDNCPLVANLVTASLRRLLIDRDPEGAVAHAQDVISDLLCNRIDISQLVITKELTRAASDYAGKQAHVELAERMRKRDPGSAPSLGDRVPYVIISAAKGVAAYMKSEDPLFVLEHSLPIDTQYYLEQQLAKPLLRIFEPILGEGRAEAVLLRGDHTRCKTVLTGKVGGLLAFAKRRNCCIGCRTVLSHQGAVCEFCQPRESELYQKEVSHLNALEERFSRLWTQCQRCQGSLHEDVICTSRDCPIFYMRKKVRKDLEDQEQLLRRFGPPGPEAW [POLD1] | -0.101 | 5.56 | 6.68 | -0.0376 | 48.3 °C | 49.1 °C |
| MATKARVMYDFAAEPGNNELTVNEGEIITITNPDVGGGWLEGRNIKGERGLVPTDYVEILPSDGKDQFSCGNSVADQAFLDSLSASTAQASSSAASNNHQVGSGNDPWSAWSASKSGNWESSEGWGAQPEGAGAQRNTNTPNNWDTAFGHPQAYQGPATGDDDDWDEDWDGPKSSSYFKDSESADAGGAQRGNSRASSSSMKIPLNKFPGFAKPGTEQYLLAKQLAKPKEKIPIIVGDYGPMWVYPTSTFDCVVADPRKGSKMYGLKSYIEYQLTPTNTNRSVNHRYKHFDWLYERLLVKFGSAIPIPSLPDKQVTGRFEEEFIKMRMERLQAWMTRMCRHPVISESEVFQQFLNFRDEKEWKTGKRKAERDELAGVMIFSTMEPEAPDLDLVEIEQKCEAVGKFTKAMDDGVKELLTVGQEHWKRCTGPLPKEYQKIGKALQSLATVFSSSGYQGETDLNDAITEAGKTYEEIASLVAEQPKKDLHFLMECNHEYKGFLGCFPDIIGTHKGAIEKVKESDKLVATSKITLQDKQNMVKRVSIMSYALQAEMNHFHSNRIYDYNSVIRLYLEQQVQFYETIAEKLRQALSRFPVM [SNX9] | -0.0298 | -0.198 | 0.732 | -0.0383 | 49.9 °C | 49.3 °C |
| METPSQRRATRSGAQASSTPLSPTRITRLQEKEDLQELNDRLAVYIDRVRSLETENAGLRLRITESEEVVSREVSGIKAAYEAELGDARKTLDSVAKERARLQLELSKVREEFKELKARNTKKEGDLIAAQARLKDLEALLNSKEAALSTALSEKRTLEGELHDLRGQVAKLEAALGEAKKQLQDEMLRRVDAENRLQTMKEELDFQKNIYSEELRETKRRHETRLVEIDNGKQREFESRLADALQELRAQHEDQVEQYKKELEKTYSAKLDNARQSAERNSNLVGAAHEELQQSRIRIDSLSAQLSQLQKQLAAKEAKLRDLEDSLARERDTSRRLLAEKEREMAEMRARMQQQLDEYQELLDIKLALDMEIHAYRKLLEGEEERLRLSPSPTSQRSRGRASSHSSQTQGGGSVTKKRKLESTESRSSFSQHARTSGRVAVEEVDEEGKFVRLRNKSNEDQSMGNWQIKRQNGDDPLLTYRFPPKFTLKAGQVVTIWAAGAGATHSPPTDLVWKAQNTWGCGNSLRTALINSTGEEVAMRKLVRSVTVVEDDEDEDGDDLLHHHHGSHCSSSGDPAEYNLRSRTVLCGTCGQPADKASASGSGAQVGGPISSGSSASSVTVTRSYRSVGGSGGGSFGDNLVTRSYLLGNSSPRTQSPQNCSIM [LMNA] | 1.64 | -9.6 | -5.85 | -1.05 | 54.8 °C | 52.9 °C |
| MGRRRAPAGGSLGRALMRHQTQRSRSHRHTDSWLHTSELNDGYDWGRLNLQSVTEQSSLDDFLATAELAGTEFVAEKLNIKFVPAEARTGLLSFEESQRIKKLHEENKQFLCIPRRPNWNQNTTPEELKQAEKDNFLEWRRQLVRLEEEQKLILTPFERNLDFWRQLWRVIERSDIVVQIVDARNPLLFRCEDLECYVKEMDANKENVILINKADLLTAEQRSAWAMYFEKEDVKVIFWSALAGAIPLNGDSEEEANRDDRQSNTTKFGHSSFDQAEISHSESEHLPARDSPSLSENPTTDEDDSEYEDCPEEEEDDWQTCSEEDGPKEEDCSQDWKESSTADSEARSRKTPQKRQIHNFSHLVSKQELLELFKELHTGRKVKDGQLTVGLVGYPNVGKSSTINTIMGNKKVSVSATPGHTKHFQTLYVEPGLCLCDCPGLVMPSFVSTKAEMTCSGILPIDQMRDHVPPVSLVCQNIPRHVLEATYGINIITPREDEDPHRPPTSEELLTAYGYMRGFMTAHGQPDQPRSARYILKDYVSGKLLYCHPPPGRDPVTFQHQHQRLLENKMNSDEIKMQLGRNKKAKQIENIVDKTFFHQENVRALTKGVQAVMGYKPGSGVVTASTASSENGAGKPWKKHGNRNKKEKSRRLYKHLDM [LSG1] | 0.0936 | 0.926 | 1.89 | -0.366 | 49 °C | 49 °C |
| MSLGRLCRLLKPALLCGALAAPGLAGTMCASRDDWRCARSMHEFSAKDIDGHMVNLDKYRGFVCIVTNVASQUGKTEVNYTQLVDLHARYAECGLRILAFPCNQFGKQEPGSNEEIKEFAAGYNVKFDMFSKICVNGDDAHPLWKWMKIQPKGKGILGNAIKWNFTKFLIDKNGCVVKRYGPMEEPLVIEKDLPHYF [GPX4] | -0.141 | -2.51 | -2.1 | 0.136 | 56.3 °C | 56.3 °C |
